The target of this experiment is T1, GvpA of Anabaena flos-aquae (primary shell protein of the gas vesicle) (Anabaena flos-aquae) (UniProt P10397).
T1 sequence: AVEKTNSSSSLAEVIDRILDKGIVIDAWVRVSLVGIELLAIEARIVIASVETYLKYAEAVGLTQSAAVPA
The experiment can be described thus: cell-based or functional assay.

The record followed here is patent publication US20210060185A1.

B1: WT Ana GvpC (under pTet promoter) (protein)
chain: MISLMAKIRQEHQSIAEKVAELSLETREFLSVTTAKRQEQAEKQAQELQAFYKDLQETSQQFLSETAQARIAQAEKQAQELLAFHKELQETSQQFLSATAQARIAQAEKQAQELLAFYQEVRETSQQFLSATAQARIAQAEKQAQELLAFHKELQETSQQFLSATADARTAQAKEQKESLLKFRQDLFVSIFG
B1: the nonlinear ultrasound contrast of Nissle cells expressing ASGClpXP, with against without aTc induction of WT GvpC worked out at 10 dB.
